The text below walks through data of patent publication US20160136262A1.

Experiment [1] addresses T1, H1-mini2-cluster1+5+6-GCN4 without leader sequence and with FLAG-thrombin-foldon-HIS (SEQ ID NO: 6). Description: ELISA/HTRF ratio, reference itself. Particulars: remark: other sources report otherwise.
The target of experiment [2] is T1, H1-mini2-cluster1+5+6-GCN4 without …. Put plainly: ELISA signal over HTRF expression signal; average (AV). Particulars: remark: other sources report otherwise. For orientation: ELISA stands for enzyme-linked immunosorbent assay.

B1: CR6261 (antibody, V domains shown)
VH: EVQLVESGAEVKKPGSSVKVSCKASGGPFRSYAISWVRQAPGQGPEWMGGIIPIFGTTKYAPKFQGRVTITADDFAGTVYMELSSLRSEDTAMYYCAKHMGYQVRETMDVWGKGTTVTVSS
VL: QSVLTQPPSVSAAPGQKVTISCSGSSSNIGNDYVSWYQQLPGTAPKLLIYDNNKRPSGIPDRFSGSKSGTSATLGITGLQTGDEANYYCATWDRRPTAYVVFGGGTKLTVLG
Turning to B1, in experiment [1], the fold increase of ratio over parental H1 mini-HA worked out at 1 fold. In experiment [2], the ratio binding/HTRF signal worked out at 5.94.
